Measurements: the RNAGym collection of RNA variant scans (doi:10.1073/pnas.2313332121)

B1: TPR t1 (parent)
chain: GACCAAUCUGCCCUCAGAGCUCGAGAACAUCUUCGGAUGCAGAGGAGGCAGGCUUCGGUGGCGCGAUAGCGCCAACGUCCUCAACCUCCAAUGCAUCCCACCACAUGAUGAUGCCUGAAGAGCCUUGGUUUUUUG

Variants of: B1
Test: polymerase ribozyme fitness, log enrichment relative to wild type (log ratio); higher = more active; in vitro selection for triplet polymerase activity
How it was run: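 The heterodimeric triplet polymerase ribozyme's subunits were each mutagenized into PCR-built libraries and transcribed. Every library was selected once, in triplicate, by annealing with a biotinylated primer, the partner subunit and triplets, incubating frozen at −7 °C, gel-excising extended constructs, capturing on streptavidin beads and running RT-PCR. Input and output libraries were Illumina-sequenced, with genotypes kept only at ≥10 input reads and ≥1 read per output. Fitness, from inverse-variance-weighted replicate averages, is the base-2 logarithm of genotype enrichment over wild-type enrichment.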

| Variant | polymerase ribozyme fitness (log ratio) |
| --- | --- |
| GACCAAUCUGCCCUCAGAGCUCGAGAACAUCUUCGGAUGCAGAGGAGCCAGGCUUCGGUGGCGCGAUAGCGCCAACGUCCUCAACCUCCAAUACAUCCAACCACAUGAUGAUCCCUGAAGAGCCUUGGUUUUUUG | -7.38 |
| GACCAAUCUGCCCUCAGAGCUCGAGAACAUCUUCGGAUGCAGAGGAGCAAGGCUUCGGUGGCGCGAUAGCGCCAACGUCCUCAACCUUCAAUGCGUCCCACCACAUGAUGAUGCCUGAAGAGCCUUGGUUUUUUG | -0.72 |
| GACCAAUCUGCCCUCAGAGCUCGAGAACAUCUUCGGAUGCAGAGGAGUCAGGCUUCGGUGGCGCGAUAGCGCCUACGUCCUCAACCUCCAAUGCAUCCCACCACAUGAUGAUGCCUGAAGAGCCUUGGUUUUUUG | -0.741 |
| GACCAAUCUGCCCUCAGAGCUCGAGAACAUCUUCGGAUGCAGAGGAGCCAGUCUUCGGUAGCGCGAUAGCGCCAACGUCCUCAACCUCCAAUGCAUCCCACCACAUGAAUAUGCCUGAAGAGCCUUGGUUUUUUG | -6.29 |
| GACCAAUCUGCCCUCAGAGCUCGAGAACAUCUUCGGAUGCAGAGGAGCCAGGCUUCGGUGGAUCGAUAGCGCCAACGUCCUCAACCUCCAAUGCAUCCCACCACAUGAUGAUGCCUGAAGGGCCUUGGUUUUUUG | -4.74 |
| GACCAAUCUGCCCUCAGAGCUCGAGAACAUCUUCGGAUGCAGAGGAGCCAGGCUUCGGUGGCACGAUAGCGCCAACGUCCUCAACCUCCAAUGCAUCCCACCACAUGAUGAUUCCUGAAGAGACUUGGUUUUUUG | -5.64 |
| GACCAAUCUGCCCUCAGAGCUCGAGAACAUCUUCGGAUGCAGAGGAGCUAGGCUUCGGUGGCGCGAUAGCGCCAACGUCCUCAACCUCCAAUGCAUCCCACCACAGGAUGAUGCCUGAAGAGCCUUGGUUUUUUG | -2.77 |
| GACCAAUCUGCCCUCAGAGCUCGAGAACAUCUUCGGAUGCAGAGGAGCGAGGCCUCGGUGGCGCGAUAGCGCCAACGUCCUCAACCUCCAAUGCCUCCCACCACAUGAUGAUGCCUAAAGAGCCUUGGUUUUUUG | -2.24 |
| GACCAAUCUGCCCUCAGAGCUCGAGAACAUCUUCGGAUGCAGAGGAGCCAGGCUUCGGUGGCGCGAUAGCGCCAACGUCCUCAACCUCCAAUGCAUCCCACCAUAUGAUGAUGCCUGAAGAGCCUUGGUUUUUUG | -0.793 |
| GACCAAUCUGCCCUCAGAGCUCGAGAACAUCUUCGGAUGCAGAGGAGCCAGGCUUCGGUGGCGCGAUAGCGUCAACGUCCUCAACCUCCGAUGCAUCCCACCACAUGAUGAUGCCUGAAGAGCCUUGGUUUAUUG | -0.935 |
| GACCAAUCUGCCCUCAGAGCUCGAGAACAUCUUCGGAUGCAGAGGAGCUAGGCUUCGGAGGCGCGAUAGCGCCAACGUCCUCAACCUCCAAUGCAUCCCACCACAUGAUGAUGCCUGAAGAGCCUUGGUUUUUUG | -1.34 |
| GACCAAUCUGCCCUCAGAGCUCGAGAACAUCUUCGGAUGCAGAGGAGCCAGGCUUCGGUGGCGCGAUAGCGCCAACGUCCUCAACCUCCAAUGCAUCCCAACACAUGAUGAUGCCUAAAGAGCCUUGGUUUUUUG | -2.54 |
| GACCAAUCUGCCCUCAGAGCUCGAGAACAUCUUCGGAUGCAGAGGAGCCAGGCUUUGGUGGCGCGAUAGCGCCAACAUCCUCAACCUCCAAUGCAUCCCACCACAUGAUAAUGCCUGAAGAGCCUUGGUUUUUUG | -2.29 |
| GACCAAUCUGCCCUCAGAGCUCGAGAACAUCUUCGGAUGCAGAGGAGUCGGGCUUCGGUGACGCGAUAGCGCCAACGUCCUCAACCUCUAAUGCAUCCCACCACAUGAUGAUGCCUGAAGAGCCUUGGUUUUUUG | -1.81 |
| GACCAAUCUGCCCUCAGAGCUCGAGAACAUCUUCGGAUGCAGAGGAGCCAGGCUUCGGUGGCGCGAUAGCUCCAACGUCCUCAACCUCCAAUGCAUCCCACCACAUGAUGAUGCCUGAAGAGCCUUGGUUUUUUG | -2.47 |
| GACCAAUCUGCCCUCAGAGCUCGAGAACAUCUUCGGAUGCAGAGGAGCCAGGCUUCGGUGGCGCGAUAGCACCAACGUCCUCAACCUCCAAUGCAUCCCACCACAUGAUGAUGCCUGAAGAGCCUUGGUUUUUUG | -1.65 |
| GACCAAUCUGCCCUCAGAGCUCGAGAACAUCUUCGGAUGCAGAGGAGCCAGGCUUCGGUGGCGCGAUAGCGCCCACGUCCUCAACCUCCAAUGCAUCCCACCACAUGAUGAUGCCUGAAGAGCCUUGGUUUUUUG | -0.603 |
| GACCAAUCUGCCCUCAGAGCUCGAGAACAUCUUCGGAUGCAGAGGAGCCAGGCUUCGGUGCCGCGAUAGCGCCAACGUCCUCAACCUCCAAUGCAUCCCACCACAUGAUGAUGCCUGAAGAGCCUUGGUUUUUUG | -2.06 |
| GACCAAUCUGCCCUCAGAGCUCGAGAACAUCUUCGGAUGCAGAGGAGCCAGGCUUCGGUGGCGCGAUAGCGCCAGCGUCCUCAACCUCCAAUGCAUCCCACCACAUGAUGAUGCCUGAAGAGCCUUGGUUUUUUG | -0.575 |
| GACCAAUCUGCCCUCAGAGCUCGAGAACAUCUUCGGAUGCAGAGGAGCCAGGCUUCGGUGGCGCGAUAGCGCCAACGUUCUCAACCUCCAAUGCAUCCCAACACAUGAUGAUGCCUGAAGAGCCUUGGUUUUUUG | -1.57 |
| GACCAAUCUGCCCUCAGAGCUCGAGAACAUCUUCGGAUGCAGAGGAGCCAGGCUUCGGUGGCGCGAUAGCGCCAACGUGCUCAACCUCCAAUGCAUCCCACCACAUGAUGAUGCCUGAAGAGCCUUGGUUUUUUG | -4.27 |
